Results as given in patent US7196244.

What was measured:
[1] = target: T1, Mos1 transposase (Drosophila mauritiana) (UniProt Q7JQ07); test: cell_activity; settings: glh-2 promoter, C. elegans germline
T1 sequence: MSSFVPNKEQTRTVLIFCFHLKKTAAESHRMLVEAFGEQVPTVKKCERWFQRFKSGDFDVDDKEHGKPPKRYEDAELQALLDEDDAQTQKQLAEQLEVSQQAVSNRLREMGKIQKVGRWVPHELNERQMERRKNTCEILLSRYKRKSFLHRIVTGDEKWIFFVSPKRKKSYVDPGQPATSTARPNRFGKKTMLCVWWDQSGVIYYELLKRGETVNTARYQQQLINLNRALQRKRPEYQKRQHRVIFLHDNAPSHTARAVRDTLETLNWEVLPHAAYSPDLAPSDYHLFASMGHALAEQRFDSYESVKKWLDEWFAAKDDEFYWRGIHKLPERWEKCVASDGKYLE

[2] = tested on: TC3A transposase (Caenorhabditis elegans); test: cell_activity; settings: ced-9 promoter; 0.1% with glh-2 promoter

Mos1 transposon in integrated array oxIs25
activity (% chromosomes with catastrophic excision) [1]: 20.9

Tc3 element in unc-22(r750::Tc3)
activity (% germline reversion) [2]: 2
